Test results as given in PMC6593972.

Target: fluorescein isothiocyanate (FITC)-casein
Experiment: fluorescence polarisation; fluorescence anisotropy; FITC-casein 100 nM, ClpB (WT or mutant) varied; Reaction buffer, 10 min at 30°C, 2 mM ATP; black 384 well plates; Kd by nonlinear regression

Chain of fluorescein isothiocyanate (FITC)-casein (P02662 16-214): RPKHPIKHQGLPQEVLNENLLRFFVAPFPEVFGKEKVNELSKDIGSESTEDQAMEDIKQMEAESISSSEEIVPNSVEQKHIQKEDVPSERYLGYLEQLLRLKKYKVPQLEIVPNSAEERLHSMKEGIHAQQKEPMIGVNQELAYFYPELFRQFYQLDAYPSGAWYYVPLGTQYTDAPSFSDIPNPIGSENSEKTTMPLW
Chain of ClpB wild-type (P63284 whole entry): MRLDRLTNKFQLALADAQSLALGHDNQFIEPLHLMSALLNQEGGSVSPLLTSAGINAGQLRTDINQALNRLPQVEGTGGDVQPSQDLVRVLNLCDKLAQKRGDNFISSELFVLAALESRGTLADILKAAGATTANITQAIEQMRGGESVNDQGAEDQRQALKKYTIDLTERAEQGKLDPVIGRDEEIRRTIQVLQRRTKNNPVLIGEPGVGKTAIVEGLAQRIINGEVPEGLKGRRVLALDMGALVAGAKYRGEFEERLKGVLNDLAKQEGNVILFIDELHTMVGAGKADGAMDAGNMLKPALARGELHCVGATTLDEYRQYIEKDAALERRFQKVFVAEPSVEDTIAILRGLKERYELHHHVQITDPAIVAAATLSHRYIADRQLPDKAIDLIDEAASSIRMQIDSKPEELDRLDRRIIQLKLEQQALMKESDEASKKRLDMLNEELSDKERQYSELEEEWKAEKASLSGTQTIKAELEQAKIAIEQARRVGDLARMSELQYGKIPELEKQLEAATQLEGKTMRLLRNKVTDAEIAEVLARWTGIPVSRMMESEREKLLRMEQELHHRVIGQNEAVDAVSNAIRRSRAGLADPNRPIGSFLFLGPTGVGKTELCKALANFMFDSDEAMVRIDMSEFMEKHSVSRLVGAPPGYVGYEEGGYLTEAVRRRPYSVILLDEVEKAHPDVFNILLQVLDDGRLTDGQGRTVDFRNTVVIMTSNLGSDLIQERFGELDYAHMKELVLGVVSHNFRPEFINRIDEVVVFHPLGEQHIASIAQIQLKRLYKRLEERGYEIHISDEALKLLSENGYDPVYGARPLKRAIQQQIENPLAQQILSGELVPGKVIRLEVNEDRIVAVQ

With “ClpB-K476C (from UniProt P63284 1-857) (natural protein)” the Kd was 220 nM.
With “ClpB wild-type (from UniProt P63284 1-857) (natural protein)” the Kd was 330 nM.
